The target of one assay is T1, HLA-A2.1 MHC class I on the surface of T2 cells.
T1 construct: whole, on cells; MHC class I molecule stabilised on T2 cells by added peptide
The assay can be described thus: T2 MHC class I stabilisation, flow cytometry with anti HLA-A2.1 mAb, peptide at 1 ug (printed '1 lg'), n = 3. As for the experimental part: (§1) 2. CAPABILITY OF T21-DERIVED PEPTIDES TO STABILISE MHC CLASS I ON THE SURFACE OF T2 CELLS. Each of the peptides were then screened in a standard T2 assay to determine their ability to stabilise MHC class I molecules on the surface of T2 cells. In brief, T2 cells were cultured routinely in suspension and when required, resuspended to 4×10⁶ cells/ml. 40 μl of the cell suspension was added to round bottom 96 well plates to give a final cell number of 1.6×10⁵ cells/well. Test peptide was added to the wells in triplicate at concentrations of 100, 10, 1 μg. As a control, T2 cells were also treated with equivalent concentrations of DMSO. Following overnight incubation, cells were harvested into FACS tubes, washed and labelled with anti HLA-A2.1 monoclonal antibody (primary antibody) and FITC conjugated goat IgG F(ab′)₂ anti mouse Ig (secondary antibody). Cells were then analysed using a FACScan spectrofluorometer. (See Table 5 and FIG. 6).
(§2) TABLE 5 Mean T2 binding ratios calculated for the four T21-derived peptides. Mean fluorescence (T2 binding ratio) was calculated by dividing the fluorescence observed for the test peptide by the fluorescence observed for the control (DMSO).
For the molecule SLERLVNAI (Synthetic peptide) [T21:660 peptide], the “Mean T2 binding ratio” value is 0.918 ratio to DMSO control.

On to LIIPSLERL (Synthetic peptide) [T21:656 peptide], for which the “Mean T2 binding ratio” value is 0.955 ratio to DMSO control.

With YLIHLLQEL (Synthetic peptide) [T21:765 peptide], the “Mean T2 binding ratio” value was 0.955 ratio to DMSO control.

Regarding VIAKFQNKL (Synthetic peptide) [T21:607 peptide], the “Mean T2 binding ratio” value is 0.951 ratio to DMSO control.

The target of a further assay is T1, HLA-A2.1 MHC class I on the surface of …. Kind of assay: T2 MHC class I stabilisation, flow cytometry with anti HLA-A2.1 mAb, peptide at 10 ug (printed '10 lg'), n = 3. On the procedure: as §1, §2
Consider SLERLVNAI (Synthetic peptide) [T21:660 peptide], for which the “Mean T2 binding ratio” value is 0.942 ratio to DMSO control.

LIIPSLERL (Synthetic peptide) [T21:656 peptide]: the “Mean T2 binding ratio” value is 0.928 ratio to DMSO control.

Turning to YLIHLLQEL (Synthetic peptide) [T21:765 peptide], the “Mean T2 binding ratio” value was 1.11 ratio to DMSO control.

Take VIAKFQNKL (Synthetic peptide) [T21:607 peptide]: the “Mean T2 binding ratio” value is 0.967 ratio to DMSO control.

Another assay shares this target. Kind of assay: T2 MHC class I stabilisation, flow cytometry with anti HLA-A2.1 mAb, peptide at 100 ug (printed '100 lg'), n = 3. As for the experimental part: as §1, §2
In the case of SLERLVNAI (Synthetic peptide) [T21:660 peptide], the “Mean T2 binding ratio” value was 0.893 ratio to DMSO control.

As to LIIPSLERL (Synthetic peptide) [T21:656 peptide], the “Mean T2 binding ratio” value is 0.921 ratio to DMSO control.

Regarding YLIHLLQEL (Synthetic peptide) [T21:765 peptide], the “Mean T2 binding ratio” value is 2.86 ratio to DMSO control.

For the molecule VIAKFQNKL (Synthetic peptide) [T21:607 peptide], the “Mean T2 binding ratio” value was 0.933 ratio to DMSO control.
